Results as given in US20190233808.
Residue numbers refer to the chain shown, from its start. In names and notes the source's numbering stands.

Assays:
[1] = target: FITC-labeled bovine type-1 collagen (Chondrex, Cat# 4001), P02453
[2] = target: T1, synthetic MMP1 substrate MCA-Lys-Pro-Leu-Gly-Leu-DPA-Ala-Arg-NH2 (R&D Systems, Cat# ES010)
T1 chain: KPLGLXAR

Sequence of FITC-labeled bovine type-1 collagen (Chondrex, Cat# 4001), P02453 (P02453 162-1217, chain 1 of 2): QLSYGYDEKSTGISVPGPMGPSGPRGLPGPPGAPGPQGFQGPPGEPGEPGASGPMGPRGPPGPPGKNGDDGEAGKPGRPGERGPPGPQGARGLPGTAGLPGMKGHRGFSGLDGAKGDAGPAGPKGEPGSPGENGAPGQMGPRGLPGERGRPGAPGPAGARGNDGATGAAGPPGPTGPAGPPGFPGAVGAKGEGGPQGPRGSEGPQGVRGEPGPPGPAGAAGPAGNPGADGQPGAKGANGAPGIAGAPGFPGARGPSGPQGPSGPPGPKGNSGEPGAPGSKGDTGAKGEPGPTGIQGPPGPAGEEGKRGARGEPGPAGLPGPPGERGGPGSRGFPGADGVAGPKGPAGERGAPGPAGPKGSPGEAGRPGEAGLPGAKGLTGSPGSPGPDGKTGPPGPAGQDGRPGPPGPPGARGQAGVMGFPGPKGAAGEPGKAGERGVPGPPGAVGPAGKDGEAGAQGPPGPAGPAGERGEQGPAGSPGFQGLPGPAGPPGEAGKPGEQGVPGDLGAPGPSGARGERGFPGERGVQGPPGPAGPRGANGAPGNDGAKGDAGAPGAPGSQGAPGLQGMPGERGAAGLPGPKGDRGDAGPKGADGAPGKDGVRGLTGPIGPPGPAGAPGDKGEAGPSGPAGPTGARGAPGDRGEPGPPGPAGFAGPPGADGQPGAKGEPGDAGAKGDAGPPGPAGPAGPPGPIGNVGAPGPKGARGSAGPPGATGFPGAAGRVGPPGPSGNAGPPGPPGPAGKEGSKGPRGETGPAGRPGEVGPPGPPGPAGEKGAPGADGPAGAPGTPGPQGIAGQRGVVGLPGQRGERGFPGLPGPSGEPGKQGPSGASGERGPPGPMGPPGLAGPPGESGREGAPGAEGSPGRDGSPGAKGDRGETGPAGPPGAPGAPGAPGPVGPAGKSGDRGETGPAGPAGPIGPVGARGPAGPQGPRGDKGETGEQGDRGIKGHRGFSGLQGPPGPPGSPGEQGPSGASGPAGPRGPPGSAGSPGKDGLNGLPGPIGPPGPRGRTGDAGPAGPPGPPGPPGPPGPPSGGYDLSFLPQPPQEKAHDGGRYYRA
Sequence of FITC-labeled bovine type-1 collagen (Chondrex, Cat# 4001), P02453 (P02453 other isoform, or with tags, fused parts or gaps, chain 2 of 2): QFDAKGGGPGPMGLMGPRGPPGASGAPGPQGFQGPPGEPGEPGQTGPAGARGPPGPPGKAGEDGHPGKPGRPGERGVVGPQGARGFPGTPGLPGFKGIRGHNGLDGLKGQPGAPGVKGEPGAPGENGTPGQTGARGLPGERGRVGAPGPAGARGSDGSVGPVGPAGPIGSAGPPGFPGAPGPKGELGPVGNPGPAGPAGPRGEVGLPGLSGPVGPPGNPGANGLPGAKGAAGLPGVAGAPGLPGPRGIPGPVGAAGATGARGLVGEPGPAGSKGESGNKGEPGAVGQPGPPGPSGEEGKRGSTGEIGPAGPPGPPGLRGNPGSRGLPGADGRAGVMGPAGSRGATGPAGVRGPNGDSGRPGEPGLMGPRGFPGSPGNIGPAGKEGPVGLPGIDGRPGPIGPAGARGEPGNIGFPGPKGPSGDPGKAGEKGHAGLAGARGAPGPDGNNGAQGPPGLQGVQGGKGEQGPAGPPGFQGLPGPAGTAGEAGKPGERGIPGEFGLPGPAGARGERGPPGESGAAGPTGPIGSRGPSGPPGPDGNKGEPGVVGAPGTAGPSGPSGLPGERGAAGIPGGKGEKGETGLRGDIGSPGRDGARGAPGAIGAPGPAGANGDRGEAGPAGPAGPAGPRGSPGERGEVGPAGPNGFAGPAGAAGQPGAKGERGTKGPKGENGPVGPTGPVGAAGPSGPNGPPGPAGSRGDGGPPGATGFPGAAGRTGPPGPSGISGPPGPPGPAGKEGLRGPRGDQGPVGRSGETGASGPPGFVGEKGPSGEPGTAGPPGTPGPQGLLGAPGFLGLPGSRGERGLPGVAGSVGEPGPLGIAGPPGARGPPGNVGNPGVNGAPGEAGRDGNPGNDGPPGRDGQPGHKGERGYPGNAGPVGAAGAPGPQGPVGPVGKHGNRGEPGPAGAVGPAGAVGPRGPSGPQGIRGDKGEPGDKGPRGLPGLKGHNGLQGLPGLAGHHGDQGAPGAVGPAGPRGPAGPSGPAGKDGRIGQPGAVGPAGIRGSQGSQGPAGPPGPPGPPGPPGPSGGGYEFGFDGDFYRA

B1: trypsin-activated MMP1 (43 kD active human matrix metalloproteinase-1) (protein)
chain: VLTEGNPRWEQTHLTYRIENYTPDLPRADVDHAIEKAFQLWSNVTPLTFTKVSEGQADIMISFVRGDHRDNSPFDGPGGNLAHAFQPGPGIGGDAHFDEDERWTNNFREYNLHRVAAHELGHSLGLSHSTDIGALMYPSYTFSGDVQLAQDDIDGIQAIYGRSQNPVQPIGPQTPKACDSKLTFDAITTIRGEVMFFKDRFYMRTNPFYPEVELNFISVFWPQLPNGLEAAYEFADRDEVRFFKGNKYWAVQGQNVLHGYPKDIYSSFGFPRTVKHIDAALSEENTGKTYFFVANKYWRYDEYKRSMDPGYPKMIAHDFPGIGHKVDAVFMKDGFFYFFHGTRQYKFDPKTKRILTLQKANSWFNCRKN
collagen cleavage on SDS PAGE [1]: active MMP1 cleaves type-1 collagen into ¾ and ¼ fragments
kcat (weight-based collagen degradation assay) [1]: ~19 monomers per MMP1 per hour
kcat/MMP1/hr using 1 mg/ml concentration (+MMP1 for 1 hr) [1]: 0.5 /MMP1/hr
kcat/MMP1/hr using 1 mg/ml concentration (+MMP1 for 2 hr) [1]: 0.21 /MMP1/hr
kcat/MMP1/hr using 1 mg/ml concentration (+MMP1 for 3 hr) [1]: 0.19 /MMP1/hr
kcat/MMP1/hr using 1 mg/ml concentration (+MMP1 for 4 hr) [1]: 0.15 /MMP1/hr
kcat/MMP1/hr using 1 mg/ml concentration (+MMP1 for 5 hr) [1]: 0.14 /MMP1/hr
kcat/MMP1/hr using 1 mg/ml concentration (+MMP1 for 6 hr) [1]: 0.11 /MMP1/hr
kcat/MMP1/hr using 1 mg/ml concentration (+MMP1 for 7 hr) [1]: 0.1 /MMP1/hr
kcat/MMP1/hr using 1 mg/ml concentration (+MMP1 for 8 hr) [1]: 0.1 /MMP1/hr
kcat/MMP1/hr using 1 mg/ml concentration (+MMP1 for 9 hr) [1]: 0.09 /MMP1/hr
kcat/MMP1/hr using 1 mg/ml concentration (+MMP1 for 10 hr) [1]: 0.09 /MMP1/hr
kcat/MMP1/hr using 114.2 mg/ml concentration (+MMP1 for 1 hr) [1]: 58 /MMP1/hr
kcat/MMP1/hr using 114.2 mg/ml concentration (+MMP1 for 2 hr) [1]: 24 /MMP1/hr
kcat/MMP1/hr using 114.2 mg/ml concentration (+MMP1 for 3 hr) [1]: 22 /MMP1/hr
kcat/MMP1/hr using 114.2 mg/ml concentration (+MMP1 for 4 hr) [1]: 17 /MMP1/hr
kcat/MMP1/hr using 114.2 mg/ml concentration (+MMP1 for 5 hr) [1]: 16 /MMP1/hr
kcat/MMP1/hr using 114.2 mg/ml concentration (+MMP1 for 6 hr) [1]: 13 /MMP1/hr
kcat/MMP1/hr using 114.2 mg/ml concentration (+MMP1 for 7 hr) [1]: 11 /MMP1/hr
kcat/MMP1/hr using 114.2 mg/ml concentration (+MMP1 for 8 hr) [1]: 11 /MMP1/hr
kcat/MMP1/hr using 114.2 mg/ml concentration (+MMP1 for 9 hr) [1]: 10 /MMP1/hr
kcat/MMP1/hr using 114.2 mg/ml concentration (+MMP1 for 10 hr) [1]: 10 /MMP1/hr
reaction rate k (RFU of degraded substrate by 0.05 µg MMP1) [2]: k=0.26±0.02 RFU/min
specific activity (RFU) [2]: k/0.05=5.2 RFU/min/µg
specific activity (fluorogenic peptide substrate, 37° C.) [2]: ~999 pmol/min/µg

B2: catalytically inactive mutant MMP1 (E219Q) (protein)
chain: B1 chain with E119Q
collagen degradation on SDS PAGE [1]: did not show degradation of type-1 collagen
